Source: patent US20030078370

Columns and labels:
[1] = test system: GFP protein fused to full length human cyclin E2 [GFP: P42212]
[2] = test system: GFP protein fused to human cyclin E2 splice variant [GFP: P42212]

hemagluttinin-tagged human cdk2
phosphorylation of histone H1 (kinase assay with 32P-ATP, autorad) [1]: can phosphorylate histone H1 | phosphorylation of histone H1 (kinase assay with 32P-ATP, autorad) [2]: cannot phosphorylate histone H1
